A short description of this data set: amyloid nucleation score (Sup35N fusion, yeast selection) (log enrichment); library NNK1; higher = more nucleation; inactive = no reads after selection. The procedure, abridged: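 Peptides of 20 random codons, each fused to Sup35N, were expressed in psi-negative yeast. Cells were induced with 100 μM copper sulfate for 24 hours and grown 7 days at 30°C on medium lacking adenine and uracil, and plasmid inserts before and after selection were Illumina-sequenced. Nucleation scores are DiMSum log enrichments of output over input reads, centred on the mode score of non-aggregating sequences, and sequences under 100 input reads were excluded.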

± gives the uncertainty stated by the source.

Take GSYGERIGEDVVNFARSYNG: the amyloid nucleation score was 0.267 ± 0.38.
Next, GVCVEFCLRGSRFWLMKNKA: 0.383 ± 0.84; WCRDIPWMVLNTVGRY: -0.547 ± 0.63.
RCMMQYKFTWGIVTYRKDLG showed an amyloid nucleation score of 0.658 ± 0.34.
Substance AVCVPVSKDGPVKGKFINKY returned an amyloid nucleation score of 0.329 ± 0.41.
Next, MCRVHFRNVTFCGALARSVL: -0.751 ± 0.43.
RLCQVDEAASTESRKAKWGR had an amyloid nucleation score of 0.075 ± 0.35.
Then ACYGLIDQLFQLANPYRTAM, with 0.412 ± 0.32; and QKSVWKSITGRASFYSSLVR, with “inactive”; and TMYVALFLFLA, with 2.54 ± 0.29.
Next, LACWLTTRNKCILNSLITLV: 0.08 ± 1.1; IWCFLI: 0.333 ± 0.55; VGISCPYYLGRGIMVEARSD: -0.006 ± 0.62.
Next, HSWGRKVF: -1.1 ± 0.47; PLVCRGLLSRCGNPSGKCGR: -0.125 ± 1.7.
For the substance FQWNAANYANSYPCKLLCSA, the amyloid nucleation score turned out to be 1.78 ± 0.21.
Next, SRYIGSSPARMMASWTFQGL: 4.01 ± 0.078; MIYVGVDISV: 2.24 ± 0.28; SEYTLLTFKSFGNRAPHFVG: 1.75 ± 0.19.
Next, ELSYSYQSGID: 0.225 ± 0.67; SMMKRVTAVVNVFYRFDIKA: “inactive”.
Then FREFWPGLYYTTPYKLSNHC, with -2.14 ± 1.1; and SHPVIL, with 0.039 ± 0.29.
YFLFFFHVDCLRNASC came in with an amyloid nucleation score of -1.25 ± 2.7.
Then SFIFLILMSAWFPFMRVTFG, with 0.198 ± 0.64.
Regarding AECLDPMNAVTVCRGSWL, the amyloid nucleation score was found to be 0.101 ± 0.35.
Next, AAVCRSILVF: 0.674 ± 0.88; VRDSVTLFPK: -0.277 ± 0.77; TFKKWMRIVYNLISKLKSRH: 2.98 ± 0.081.
LQTGRYDWKVDPINSSMESV displayed an amyloid nucleation score of 0.26 ± 0.7.
Then IWLLGSVHRLDSLVTDCKTS, with 1.08 ± 0.63.
DPGPLARKVGRRIEAAIMVA yielded an amyloid nucleation score of 0.992 ± 0.49.
On to TVWTGQRRMRVSTGCLWSGG, for which the amyloid nucleation score entry is “inactive”.
Next, WSNADEFGPD: -0.256 ± 0.51; WDVIYVFFIHIYQSVGS: -0.48 ± 0.85; YLVTGVGYGGCNIRLWE: 0.355 ± 0.83.
Then FVMSHSL, with 0.987 ± 0.43; and TDDATNVRKGAHS, with 0.602 ± 0.6; and GCIECEGAGCAPIYGVEWLD, with 0.122 ± 0.84.
Turning to YGSNWLEGVGLYRGVARQSW, the amyloid nucleation score was -0.781 ± 0.43.
Then QSTNLAFLRICECSE, with 3.8 ± 0.071; and VEFFFDF, with -0.417 ± 0.77.
For the substance TWQSLHGTVTRPRAIVFRLC, the amyloid nucleation score was 0.027 ± 0.66.
Next, NPSQIELRAFRTCMMYCGS: “inactive”; TASICSYR: -0.289 ± 0.49; WPDISCPPCNGDRMTVKWHV: 0.836 ± 0.97.
Then DSVYRLFICIVISALTGWWK, with 0.258 ± 0.62.
Then DLCIFIYFVISVRVLYRISN, with “inactive”; and VSSVGKMPDALRVKAKWIFM, with 0.141 ± 0.29.
In turn, LHSPDFDLYYVLRILACDTQ showed an amyloid nucleation score of -0.866 ± 1.7.
Then RPEISTPFMYGYFVSGVGVA, with “inactive”.
Next, LELTC: 1.6 ± 0.53.
Then RCSLIPGRLPRNRFVRPDYC, with -1.53 ± 1.3.
In turn, CRLKSMMVRNSWSVCSSGWG showed an amyloid nucleation score of 0.32 ± 0.5.
Then MSSNMLSEKWASGTEHVGVV, with -0.657 ± 0.69.
Then PEDFHNLFLKINGYLSYAFV, with -1.54 ± 1.1.
Next, YKNTCQLYPRVFTPWWYERM: 0.173 ± 0.67; WRHATSEMCFEGMLKCKVVT: 0.903 ± 0.57; HMRGLG: 6.77 ± 0.083.
MDGALSVEFSWGLLSKTRLC: the amyloid nucleation score was -0.122 ± 0.74.
Next, DCPFKLPFSTRRR: 0.05 ± 0.73; FFLPILGPW: -0.729 ± 1.7.
Next, LRSFW: “inactive”; YLDLFTGSSH: -0.368 ± 0.27; CMGPYFSGMSEFRGTLSVHA: -0.491 ± 1.9.
For the substance KTSCQSFVGR, the amyloid nucleation score was -0.403 ± 0.54.
Then LSFETRRWMYYIS, with 0.446 ± 0.24.
Then MLRTQQFSLLFEYHVHGEGG, with 3.75 ± 0.075.

The values above are taken from the supplement of paper PMC12042874.
